This note sets out measurements from article PMC2859121 (Cell host & microbe, 2010).

* marks the point of attachment. Cam = NC(=O)C*

The data set “cross-linking” deals with the molecule itself. The experiment in a line: cross-linking.
Data set [1] deals with the molecule itself. The data set is described as follows: SDS-PAGE under reducing and non-reducing conditions.

B1: tetherin(80–147), reduced with DTT and cysteines blocked with iodoacetamide (domain or fragment, human, UniProt Q10589 80-147, looked up)
chain: GFQDVEAQAATC(Cam)NHTVMALMASLDAEKAQGQKKVEELEGEITTLNHKLQDASAEVERLRRENQVLSVR
B1: the “stoichiometry N” value in the data set “cross-linking” worked out at 2.

B2: tetherin(47–159) (domain or fragment, human, UniProt Q10589 47-159, looked up)
chain: KANSEACRDGLRAVMECRNVTHLLQQELTEAQKGFQDVEAQAATCNHTVMALMASLDAEKAQGQKKVEELEGEITTLNHKLQDASAEVERLRRENQVLSVRIADKKYYPSSQD
On to B2, for which the “stoichiometry N” value in data set [1] was determined as 2.

B3: tetherin(47–159), reduced with DTT and cysteines blocked with iodoacetamide (domain or fragment, human, UniProt Q10589 47-159, looked up)
chain: KANSEACRDGLRAVMECRNVTHLLQQELTEAQKGFQDVEAQAATCNHTVMALMASLDAEKAQGQKKVEELEGEITTLNHKLQDASAEVERLRRENQVLSVRIADKKYYPSSQD
modifications: cysteines blocked with iodoacetamide after reduction with DTT
B3: in “cross-linking”, the “stoichiometry N” value worked out at 2.

B4: tetherin(47–159) set 3 mutant (domain or fragment, human, UniProt Q10589 47-159, looked up)
chain: AAGSAACSAGLSAVMECRNVTHLLQQELTEAQKGFQDVEAQAATCNHTVMALMASLDAEKAQGQKKVEELEGEITTLNHKLQDASAEVERLRRENQVLSVRIADKKYYPSSQD
With B4, in data set [1], the “stoichiometry N” value is 2.

B5: tetherin(47–159)_set2 (domain or fragment, human, UniProt Q10589 47-159, looked up)
chain: KANSEACRDGLRAVMECRNVTHLLQQELTEAQKGFQDVEAQAATCNHTVMALMASLDAEKAQGQKKVEELEGEITTLNHKKQDYSAEEERERRENQVLSVRIADKKYYPSSQD
With B5, the binding result in data set [1] was “binds”.

B6: tetherin(80–147) (domain or fragment, human, UniProt Q10589 80-147, looked up)
chain: GFQDVEAQAATCNHTVMALMASLDAEKAQGQKKVEELEGEITTLNHKLQDASAEVERLRRENQVLSVR
On to B6, for which, in data set [1], the “stoichiometry N” value was determined as 2.

The term stoichiometry N denotes a count of units in the complex or per binding partner.
